Molecular target: prototypic SARS-CoV-2 RBD (residues 319-541) (SARS-CoV-2 (prototype), UniProt P0DTC2 319-541)
Assay: SPR

B1: S304 antibody (IgG1) (antibody, V domains shown)
VH: EVQLVESGGGLVQPGGSLRLSCAASGFTFSSYDMHWVRQTTGKGLEWVSTIGTAGDTYYPDSVKGRFTISREDAKNSLYLQMNSLRAGDTAVYYCARGDSSGYYYYFDYWGQGTLLTVSS
VL: DIQMTQSPSSLSAAVGDRVTITCRASQSIGSYLNWYQQKPGKAPKLLIYAASSLQSGVPSRFSGSGSGTDFTLTISSLQPEDFAIYYCQQSYVSPTYTFGPGTKVDIK
Work on B1 yielded a koff of 0.00664 s⁻¹.
